Experimental data as given in patent publication US20230226135A9, “ACETYLCHOLINE MODULATION OF IMMUNE FUNCTION” (BCell Solutions, Inc., priority 2019, published 2023).

Test: Dosing formulation storage and stability
Format: physicochemical
Conditions: 5 mg/mL DMSO stock
Protocol: Test Article Formulation Instructions & Calculations: Peptide dosing solution (0.2 mg/mL) was made fresh daily within 1 hour of use by diluting 0.09 mL of 5 mg/mL DMSO stock into 2.11 mL sterile saline. DMSO stock was kept at 4 C, then refrozen (to avoid repeated freeze-thaw cycles). Still, stock was relatively “solid” even at 4 C.
MLA antagonist dosing solution (0.6 mg/mL) was made on Day 2 by diluting the entire 5 mg in the sealed vial with 8.3 mL of sterile saline and aliquoting out ˜1.1 mL in each of seven 2 mL cryovials and freezing at −20 C. Four vials were used in the experiment, each thawed within 1 hour of use. Three vials remain frozen.
Dosing Formulations and Vehicle Storage & Stability: Saline vehicle is stable at 4 C for months. Peptide dosing solutions were made up and used fresh daily. […] MLA frozen “stock” solutions were stable for up to 1 month.

## FRIMAVLAS [CAP, α7nAChR agonist]
  stability of DMSO stock: stable for a few months
